Measurements published in PMC6403256, “ABHD5 blunts the sensitivity of colorectal cancer to fluorouracil via promoting autophagic uracil yield” (Nature Communications, 2019).
Each block holds one binder with its values, some of them ahead of it.

Legend:
Conditions in all cases: both partners purified
[1] = molecular target: T1, PDIA5 on the HuProt human protein chip (human, UniProt Q14554 22-519); experiment: peptide or protein array; human ABHD5 recombinant protein used to probe the HuProt human protein chip
T1 construct: PDIA5, human, as spotted on the HuProt human protein chip; source: spotted on the HuProt human protein chip
T1 sequence (looked up): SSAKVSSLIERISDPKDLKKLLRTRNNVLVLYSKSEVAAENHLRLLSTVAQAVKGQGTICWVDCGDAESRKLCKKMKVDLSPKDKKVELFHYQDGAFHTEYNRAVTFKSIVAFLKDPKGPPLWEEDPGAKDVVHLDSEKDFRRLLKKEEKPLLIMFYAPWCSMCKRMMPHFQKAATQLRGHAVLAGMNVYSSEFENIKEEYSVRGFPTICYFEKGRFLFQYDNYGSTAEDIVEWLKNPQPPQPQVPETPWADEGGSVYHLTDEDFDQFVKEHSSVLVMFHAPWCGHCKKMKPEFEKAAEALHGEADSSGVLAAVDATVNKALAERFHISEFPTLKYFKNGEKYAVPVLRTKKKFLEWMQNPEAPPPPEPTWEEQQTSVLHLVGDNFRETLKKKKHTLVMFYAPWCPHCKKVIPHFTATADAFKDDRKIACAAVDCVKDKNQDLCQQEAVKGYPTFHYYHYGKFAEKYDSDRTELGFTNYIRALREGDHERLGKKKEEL

[2] = molecular target: T2, GST-tagged wild type PDIA5 (human, UniProt Q14554 22-519); experiment: pull-down; Ni-NTA bead pull-down: 50 ug GST, GST-PDIA5 or mutant GST-PDIA5 with 50 ug immobilized His-ABHD5 or His-RNASET2; 20 mM Tris pH 8.0, 100 mM NaCl, 0.2% Triton X-100; 4 C, 4 h; eluates blotted with anti-GST
T2 construct: PDIA5, human, wild type; also called GST-PDIA5; wild type PDIA5 (W); source: expressed and purified; recombinant protein from Wuhan GeneCreate Biological Engineering Co., Ltd
T2 sequence (looked up): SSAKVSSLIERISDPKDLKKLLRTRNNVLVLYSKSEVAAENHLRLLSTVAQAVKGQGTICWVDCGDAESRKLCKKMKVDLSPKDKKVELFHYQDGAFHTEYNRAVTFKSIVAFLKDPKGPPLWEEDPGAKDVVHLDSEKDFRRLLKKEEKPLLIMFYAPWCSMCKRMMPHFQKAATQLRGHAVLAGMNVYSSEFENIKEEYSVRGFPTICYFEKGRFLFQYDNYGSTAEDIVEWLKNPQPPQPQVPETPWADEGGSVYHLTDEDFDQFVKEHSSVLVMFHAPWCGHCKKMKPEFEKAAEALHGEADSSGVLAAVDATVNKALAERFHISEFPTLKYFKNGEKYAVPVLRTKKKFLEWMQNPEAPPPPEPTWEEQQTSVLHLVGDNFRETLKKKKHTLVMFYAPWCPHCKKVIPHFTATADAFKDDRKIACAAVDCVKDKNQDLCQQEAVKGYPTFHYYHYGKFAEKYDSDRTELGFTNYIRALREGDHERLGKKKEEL

His-PDIA5 = molecular target: T3, His-PDIA5 (human, UniProt Q14554 22-519); experiment: pull-down; competitive binding: 50 ug GST-RNASET2 mixed with 0, 50, 100, 200 ug GST-ABHD5, incubated with 50 ug immobilized His-PDIA5 at 4 C for 4 h; detected by blot
T3 construct: PDIA5, human, wild type; source: recombinant protein from Wuhan GeneCreate Biological Engineering Co., Ltd
T3 sequence (looked up): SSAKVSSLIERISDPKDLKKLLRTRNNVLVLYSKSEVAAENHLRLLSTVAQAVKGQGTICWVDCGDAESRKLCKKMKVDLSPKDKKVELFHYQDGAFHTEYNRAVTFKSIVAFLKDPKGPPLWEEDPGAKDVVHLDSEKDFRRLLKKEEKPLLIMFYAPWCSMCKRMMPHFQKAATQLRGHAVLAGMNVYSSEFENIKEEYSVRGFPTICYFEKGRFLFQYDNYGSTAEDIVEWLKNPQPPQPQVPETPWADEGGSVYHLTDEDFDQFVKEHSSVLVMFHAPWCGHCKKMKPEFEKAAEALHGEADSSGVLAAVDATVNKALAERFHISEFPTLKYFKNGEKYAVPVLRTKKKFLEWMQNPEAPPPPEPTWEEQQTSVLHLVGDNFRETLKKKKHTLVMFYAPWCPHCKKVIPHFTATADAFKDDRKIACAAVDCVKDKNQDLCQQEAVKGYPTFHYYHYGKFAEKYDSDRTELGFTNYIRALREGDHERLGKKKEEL

- binding result [1]: binds
B1: human ABHD5 recombinant protein (probe on the HuProt chip) (natural protein, UniProt Q8WTS1 1-349, looked up)
chain: MAAEEEEVDSADTGERSGWLTGWLPTWCPTSISHLKEAEEKMLKCVPCTYKKEPVRISNGNKIWTLKFSHNISNKTPLVLLHGFGGGLGLWALNFGDLCTNRPVYAFDLLGFGRSSRPRFDSDAEEVENQFVESIEEWRCALGLDKMILLGHNLGGFLAAAYSLKYPSRVNHLILVEPWGFPERPDLADQDRPIPVWIRALGAALTPFNPLAGLRIAGPFGLSLVQRLRPDFKRKYSSMFEDDTVTEYIYHCNVQTPSGETAFKNMTIPYGWAKRPMLQRIGKMHPDIPVSVIFGARSCIDGNSGTSIQSLRPHSYVKTIAILGAGHYVYADQPEEFNQKVKEICDTVD
notes: ABHD5, human, recombinant protein used to probe the HuProt human protein chip; The methods list two recombinant ABHD5 proteins: His-ABHD5 (Wuhan GeneCreate) and ABHD5 (Human) recombinant protein H00051099-P01 (Novus)

- binding result [2]: binds
B2: His-tagged full-length ABHD5 (natural protein, human, UniProt Q8WTS1 1-349, looked up)
chain: MAAEEEEVDSADTGERSGWLTGWLPTWCPTSISHLKEAEEKMLKCVPCTYKKEPVRISNGNKIWTLKFSHNISNKTPLVLLHGFGGGLGLWALNFGDLCTNRPVYAFDLLGFGRSSRPRFDSDAEEVENQFVESIEEWRCALGLDKMILLGHNLGGFLAAAYSLKYPSRVNHLILVEPWGFPERPDLADQDRPIPVWIRALGAALTPFNPLAGLRIAGPFGLSLVQRLRPDFKRKYSSMFEDDTVTEYIYHCNVQTPSGETAFKNMTIPYGWAKRPMLQRIGKMHPDIPVSVIFGARSCIDGNSGTSIQSLRPHSYVKTIAILGAGHYVYADQPEEFNQKVKEICDTVD
notes: ABHD5, human, wild type, full length; also called His-ABHD5; source: recombinant protein from Wuhan GeneCreate Biological Engineering Co., Ltd

- binding result (His-PDIA5): binds
B3: GST-ABHD5 (natural protein, human, UniProt Q8WTS1 1-349, looked up)
chain: MAAEEEEVDSADTGERSGWLTGWLPTWCPTSISHLKEAEEKMLKCVPCTYKKEPVRISNGNKIWTLKFSHNISNKTPLVLLHGFGGGLGLWALNFGDLCTNRPVYAFDLLGFGRSSRPRFDSDAEEVENQFVESIEEWRCALGLDKMILLGHNLGGFLAAAYSLKYPSRVNHLILVEPWGFPERPDLADQDRPIPVWIRALGAALTPFNPLAGLRIAGPFGLSLVQRLRPDFKRKYSSMFEDDTVTEYIYHCNVQTPSGETAFKNMTIPYGWAKRPMLQRIGKMHPDIPVSVIFGARSCIDGNSGTSIQSLRPHSYVKTIAILGAGHYVYADQPEEFNQKVKEICDTVD
notes: ABHD5, human
